{"source": "paper PMC13013135", "about": "“[^99mTc]Tc-PSMA-HSG for PSMA-targeted Hybrid Surgical Guidance: a new addition to the PSMA-I&S/I&T family” (European Journal of Nuclear Medicine and Molecular Imaging, 2025)", "key": {"[1]": {"test_system": "PSMA expressing LNCaP cells", "assay": "Dual tracer internalization assay", "type": "cell-based, human", "settings": "60 min, 37 °C, 0.5 nM tracer, normalized to ([^125I]IBA)KuE", "experimental": "Competitive binding experiments (IC50) were carried out in accordance with an established protocol using PSMA-expressing LNCaP cells and ([^125I]I-BA)KuE as standard radioligand. […] Please see the Supplementary Material for experimental details. […] The supernatant was removed, cells were washed with assay medium, and an acid wash (50 mM NaOAc in saline, pH 4.5) was performed to remove membrane-associated activity. Cells were then lysed using 1N NaOH, and internalized activity was quantified using a γ-counter. […] Tocris Bioscience, Bristol, UK) and normalized to the specific internalization observed for the radioiodinated reference compound in the same experiment. Data represent means ± SD (n=3) from three separate determinations."}, "[2]": {"settings": "human, in vivo", "experimental": "[^99mTc]Tc-PSMA-HSG scans were performed using a GE Discovery NM/CT 670 Pro (GE Healthcare, Milwaukee, USA; n = 4) or Siemens Symbia T2 (Siemens Healthineers, Erlangen, Germany; n = 1) system. For dosimetry, planar dynamic whole body scans were performed at 5 min and 1 h after injection with a bed speed of 30 cm/min; and at 3–4 h and 20 h after injection with a speed of 12 cm/min. At 3–4 h and 20 h after injection additional SPECT/CT imaging was acquired. Attenuation maps were generated on the basis of low-dose CT. For a detailed protocol of imaging parameters and the dosimetry protocol please refer to the Supplementary Material.\nThe planar and SPECT/CT images per time point were processed using syngo.via (Siemens Healthineers, Erlangen, Germany). Organs were segmented on the accompanying CT of the SPECT/CT of each imaging time point to avoid errors due to misalignment during image registration. Segmented organs included gallbladder, muscle, heart, kidneys, liver, lungs, pancreas, spleen, stomach, and urinary bladder on the SPECT/CT. For bone marrow dosimetry, spherical volumes of interest (VOIs) were placed in lumbar vertebrae L2 to L4 [8]. Salivary glands and their background were manually segmented on the anterior view of the planar whole-body scans. Region-wise image statistics were extracted into spreadsheets including administered activity and the time interval between administration and imaging start.\nCount statistics were converted into units of Becquerel by using the decay-corrected reference activity source that was within the field of view (FOV) of each imaging acquisition. Percentage injected activities per time were entered into MIRDfit v1.01 for fitting the time-activity data. The trapezoidal method with zero activity at time zero and physical decay extrapolation after the last time point was used for the data with only two SPECT acquisitions and monoexponential fitting was used for the three SPECT acquisitions and if the fit R² was greater than 0.97. The salivary glands with available data from four planar images were fitted biexponentially if R² was greater than 0.97. The bladder was modelled in MIRDfit assuming effective half-life, two time points and a 3 h voiding interval. The resulting time integrated activity coefficients (TIACs, unit of hours) were entered in MIRDcalc v1.22 [10] for dosimetry calculations and patient-individual organ masses for kidneys, liver, pancreas, spleen and estimate for red marrow were used for S-value adjustments."}, "PSMA": {"target": "PSMA (Homo sapiens, UniProt Q04609)", "sequence (Q04609 whole entry)": "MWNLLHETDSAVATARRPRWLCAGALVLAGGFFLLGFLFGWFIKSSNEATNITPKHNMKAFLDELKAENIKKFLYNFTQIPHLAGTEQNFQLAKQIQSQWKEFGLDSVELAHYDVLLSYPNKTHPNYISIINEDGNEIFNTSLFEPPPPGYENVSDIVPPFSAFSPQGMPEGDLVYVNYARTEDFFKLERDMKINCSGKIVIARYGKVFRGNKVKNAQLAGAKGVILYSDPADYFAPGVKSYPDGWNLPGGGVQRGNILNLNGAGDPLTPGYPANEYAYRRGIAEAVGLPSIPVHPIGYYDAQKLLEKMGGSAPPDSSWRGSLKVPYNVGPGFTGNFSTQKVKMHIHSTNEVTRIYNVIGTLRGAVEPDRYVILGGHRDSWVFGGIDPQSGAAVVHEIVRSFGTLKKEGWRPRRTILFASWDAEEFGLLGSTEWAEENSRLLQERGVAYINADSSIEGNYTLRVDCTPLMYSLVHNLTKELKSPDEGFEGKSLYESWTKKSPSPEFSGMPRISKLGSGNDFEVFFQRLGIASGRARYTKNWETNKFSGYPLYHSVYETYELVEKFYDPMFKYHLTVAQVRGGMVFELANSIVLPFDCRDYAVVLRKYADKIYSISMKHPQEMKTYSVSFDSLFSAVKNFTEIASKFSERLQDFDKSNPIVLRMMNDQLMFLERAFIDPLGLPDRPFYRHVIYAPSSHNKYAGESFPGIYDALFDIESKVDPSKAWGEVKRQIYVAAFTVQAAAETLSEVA", "type": "in vivo", "set-up": "Five patients with a diagnosis of initial (n = 4) or biochemical recurrence of (n = 1) histologically proven prostate cancer; from tissue; host or cells: prostate cancer patients: primary tumour, lymph nodes, resected tissue sections", "from_the_text": "For all patients, radioguided surgery had been recommended by the local multidisciplinary tumor board. […] Attenuation maps were generated on the basis of low-dose CT. For a detailed protocol of imaging parameters and the dosimetry protocol please refer to the Supplementary Material. […] A scatter window ranging from 114 to 126 keV was additionally acquired for planar and SPECT imaging. For SPECT, the imaging field of view was from neck to upper thighs. At each bed position, 60 views were acquired, with a duration of 8 s each. Subsequently, images were reconstructed using an ordered subset expectation maximisation (OSEM) algorithm (2 iterations and 10 subsets) with a Butterworth filter (fc = 0.48, n = 10). Scatter and attenuation correction was applied. For whole-body planar imaging, a scan speed of 30 cm/min was employed until 60 min post-injection, after which the acquisition speed was moderated to 12 cm/min for any further data collection."}, "[3]": {"settings": "exploratory cohort, five patients"}, "[4]": {"settings": "subjects with newly diagnosed PCa"}}, "note": "Where “and” joins values, the source holds several entries; their conditions need not be identical. Equal entries are not always repeated. Where two headings read alike, the source gives them in different places."}
{"smiles": "C[N+]1=C(/C=C/C=C/C=C2/N(CCCCCC(=O)NCCCC[C@@H](NC(=O)[C@@H](CO)NC(=O)[C@@H](CO)NC(=O)[C@@H](CO)NC(=O)CS)C(=O)N[C@H](Cc3ccc(O)cc3)C(=O)N[C@H](Cc3ccc4ccccc4c3)C(=O)N[C@H](CCCCNC(=O)CCCCCCC(=O)NCCCC[C@H](NC(=O)N[C@@H](CCC(=O)O)C(=O)O)C(=O)O)C(=O)O)c3ccc(S(=O)(=O)[O-])cc3C2(C)C)C(C)(C)c2cc(S(=O)(=O)O)ccc21", "note": "[[^99mTc]Tc-PSMA-HSG, metal not drawn]", "values": [{"measurement": "internalization [% of reference]", "setting": "[1]", "result": "14 ± 1 % of reference"}, {"measurement": "Absorbed dose coefficient of salivary glands from planar images", "setting": "[2]", "result": "0.007 ± 0.004", "unit": "mGy/MBq"}, {"measurement": "Absorbed dose coefficient of salivary glands from planar images, max", "setting": "[2]", "result": 0.013, "unit": "mGy/MBq"}, {"measurement": "Absorbed dose coefficient of salivary glands from planar images, min", "setting": "[2]", "result": 0.005, "unit": "mGy/MBq"}, {"measurement": "Absorbed dose, Brain", "setting": "[2]", "result": 0.000, "unit": "mGy/MBq"}, {"measurement": "Absorbed dose, ET1 airway basal cells", "setting": "[2]", "result": 0.000, "unit": "mGy/MBq"}, {"measurement": "Absorbed dose, Eye lens", "setting": "[2]", "result": 0.000, "unit": "mGy/MBq"}, {"measurement": "Absorbed dose, Lymph nodes - extrathoracic", "setting": "[2]", "result": 0.001, "unit": "mGy/MBq"}, {"measurement": "Absorbed dose, Tonsils", "setting": "[2]", "result": 0.001, "unit": "mGy/MBq"}, {"measurement": "Organ TIAC, Bone marrow - red (active)", "setting": "[2]", "result": 0.412, "unit": "h"}, {"measurement": "Organ TIAC, Gallbladder content", "setting": "[2]", "result": 0.015, "unit": "h"}, {"measurement": "Organ TIAC, Heart content", "setting": "[2]", "result": 0.164, "unit": "h"}, {"measurement": "Organ TIAC, Lungs", "setting": "[2]", "result": 0.360, "unit": "h"}, {"measurement": "Organ TIAC, Muscle", "setting": "[2]", "result": 1.230, "unit": "h"}, {"measurement": "Organ TIAC, Pancreas", "setting": "[2]", "result": 0.035, "unit": "h"}, {"measurement": "Organ TIAC, Spleen", "setting": "[2]", "result": 0.096, "unit": "h"}, {"measurement": "Organ TIAC, Stomach content", "setting": "[2]", "result": 0.090, "unit": "h"}, {"measurement": "effective dose for a typically injected activity", "setting": "[2]", "result": 7.9, "unit": "mSv"}, {"measurement": "scintigraphy findings", "setting": "PSMA; Patient #1, 53 µg", "result": "Two positive LN in the right and left external iliac region"}, {"measurement": "scintigraphy findings", "setting": "PSMA; Patient #2, 53 µg", "result": "Moderate tracer uptake of the primary No positive LN"}, {"measurement": "scintigraphy findings", "setting": "PSMA; Patient #3, 53 µg", "result": "Moderate tracer uptake of the primary No positive LN"}, {"measurement": "scintigraphy findings", "setting": "PSMA; Patient #4, 350 µg", "result": "No discernible tracer uptake of the primary No discernible tracer uptake in the right iliac LN"}, {"measurement": "scintigraphy findings", "setting": "PSMA; Patient #5, 250 µg", "result": "Moderate tracer uptake of the primary No positive LN"}, {"measurement": "negative predictive value (NPV) of SPECT/CT", "setting": "PSMA; [3]", "result": 94, "unit": "%"}, {"measurement": "positive predictive value (PPV) of SPECT/CT", "setting": "PSMA; [3]", "result": 100, "unit": "%"}, {"measurement": "sensitivity of SPECT/CT", "setting": "PSMA; [3]", "result": 33, "unit": "%"}, {"measurement": "specificity of SPECT/CT", "setting": "PSMA; [3]", "result": 100, "unit": "%"}, {"measurement": "clearance in patients, visual image analysis", "setting": "PSMA; human, in vivo", "result": "swift activity clearance from blood/background via rapid renal excretion"}, {"measurement": "intestinal accumulation in patients", "setting": "PSMA; human, in vivo", "result": "Virtually no intestinal accumulation"}, {"measurement": "PET-suspicious lymph nodes positive in scintigraphy", "setting": "PSMA; [4]", "result": "2/10"}, {"measurement": "primary tumor delineated / visualized", "setting": "PSMA; [4]", "result": "3 out of 4 and 3/4"}]}
